# Assay results taken from the RNAGym collection of RNA variant scans (doi:10.1073/pnas.2313332121).
# Variants at the floor of the assay were thinned out.
# B1: TPR 5TU (parent)
# chain: GGAUCUUCUCGAUCUAACAAAAAAGACAAAUCUGCCACAAAGCUUGAGAGCAUCUUCGGAUGCAGAGGCGGCAGCCUUCGGUGGCGCGAUAGCGCCAACGUUCUCAACUAUGACACGCAAAACGCGUGCUCCGUUGAAUGGAGUUUAUCAUG
# Variants of: B1
# Assay: polymerase ribozyme fitness, log enrichment relative to wild type (log ratio); higher = more active; in vitro selection for triplet polymerase activity
# How it was run: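 To select mutant libraries of each subunit of a heterodimeric triplet polymerase ribozyme, built by PCR and transcribed, each was annealed with a biotinylated primer, partner subunit and triplets, then incubated frozen at −7 °C. Extended constructs were gel-excised, captured on streptavidin beads and amplified by RT-PCR, in one round carried out in triplicate. Illumina sequencing of input and output libraries kept genotypes with ≥10 input reads and ≥1 read per output. Fitness is the base-2 logarithm of genotype enrichment relative to wild-type enrichment, from inverse-variance-weighted replicate averages.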
row,Variant,polymerase ribozyme fitness (log ratio)
1,A12G G80A C118U A119C A120G G143U,-3.12
2,A12U A19U C35A U61G C69U U78G G80C A97C G126U,≤ -4.2
3,A12G U78C U139G,-1.31
4,A12U G94A,-1.47
5,A12G U56G C85G,-2.2
6,A12C G50C A66C C79G C93U C95U U139C A147U,≤ -4.2
7,A12U U45A U55G A66G U78C G88U C95G A137U,≤ -4.2
8,A12U C116G,-0.634
9,A12U A20U G81A C87A C96A U102C C125U,≤ -4.2
10,A12U U56A,-0.683
11,A12U C14A C85G U145C,-3.7
12,A12G A39U G42C C57A G59C C79A U134A,≤ -4.2
13,A12C U139A,≤ -4.2
14,A12G C14U G92U U111C A138U,≤ -4.2
15,A12G C96A U134C A138G G141C,-3.97
16,A12G U13C C96A,-0.909
17,A12U G25C A47G U56A C93G C108G,≤ -4.2
18,A12G A21C C32G G50U C125G,≤ -4.2
19,A12G A52U C76U C93U A120U,-2.12
20,A12G C54U C69G U145G,-4.06
21,A12G C14G A22G U61A G71A C99U C123U A142G,≤ -4.2
22,A12G A24U G34A G92U G126C,-1.83
23,A12U C87U A119U,-1.23
24,A12U G48A C96A,-2.05

row,Variant,polymerase ribozyme fitness (log ratio)
1,A12U G84C A142G,-3.93
2,A12U A41C G83C C118G G133U,≤ -4.2
3,U13A C18U U55A A119G,-1.83
4,A12U G92A A98G C125G G128U,≤ -4.2
5,U13A A40U U55A C129A,≤ -4.2
6,A12U G59A C75G U127G,-4.12
7,A12G G80C G81C C118U U135A,-1.66
8,A12U A28U U44G C93A U102A,≤ -4.2
9,A12G C14G A97U,-2.49
10,A12C U101G A137G,-0.888
11,A12C G58C G94C,-1.43
12,A12C G50C G65A C76G G83U,≤ -4.2
13,A12G C79U G86C A120G C125U,≤ -4.2
14,A12G A47C G58C C69A C93A U144C,-3.84
15,A12G G88A U109C A142C,-4.12
16,A12G G141C,-0.0174
17,A12U C14A A24U U56A C85U C99U G141A,≤ -4.2
18,A12G U55A U61G C125G,-3.62
19,A12U A19C U44G U148C,≤ -4.2
20,A12G A19C A20G A22C A28G A30G C57A G59A G84A U101G A115U G136U,≤ -4.2
21,U13A A26U C76U U146A,-3.35
22,A12U A28U U55G A66C G74C G80C C85A C87U C96U,≤ -4.2
23,A12G U31G C118A A120G G141C,-2.6
24,U13A C27A C54A U56A G65C G92C A97G U101G G140U,≤ -4.2

row,Variant,polymerase ribozyme fitness (log ratio)
1,A12G U13G C38A A41U C95A U102C A137G,≤ -4.2
2,A12U G92U,-1.64
3,A12U G92A,-1.81
4,A12U C18A C36U C57A C95U A97G A98U C125U,-3.95
5,A12G C87G,-3.83
6,A12G C87U,-0.54
7,A12U A20U A21C C87G A142G,≤ -4.2
8,A12U U31G A40C A49C A60G C93U,≤ -4.2
9,A12G C99G,-0.551
10,A12U C87A,-4.15
11,A12U C87G,-4.2
12,A12U U144G,0.918
13,A12G A41G C85G A106G,-1.5
14,A12U A22G A29C G42U C87U C93A,≤ -4.2
15,A12G C14G A52C G67A G124A A137C,≤ -4.2
16,A12G A16U A26U G83U C87G U145C,≤ -4.2
17,A12G C85A C118A G136U,-3.83
18,A12U A21C G70C G84U C132A G136A A142U,≤ -4.2
19,A12G C87G G88U C96U C105A C108G C116U,≤ -4.2
20,U13A A16C A91G,-2.83
21,A12U C35U A91G,-3.67
22,A12G U77C,-3.98
23,A12G C69G A89U C96G U104A,-2.98
24,A12U A20G U56A C75G A121G,≤ -4.2

row,Variant,polymerase ribozyme fitness (log ratio)
1,A12G A30G,-2.97
2,A12U A28U U102A U139G U148G,-4.1
3,A12G G83C,-0.586
4,A12G U13A U31A C57A G65A C85G,≤ -4.2
5,A12U A21U A39C G92A U109G A137G,≤ -4.2
6,A12U U56G A89G C93A A113G,-3.89
7,A12G G58U C116U A150G,-1.58
8,A12U C36G G86A A110C U139A,-4.11
9,A12C C99A A119G U145C,-1.83
10,A12U A22U C27U A40G C69A U78A G94A A115C A119U G124A,≤ -4.2
11,A12U G46A C75U C87A C99U G117A,≤ -4.2
12,U13A C18G,-0.831
13,A12G C54U U61A C72A C96U A98U C99A A142C,≤ -4.2
14,A12U U56G A91G,-2.61
15,A12G G48C U56A G70A G83U,≤ -4.2
16,A12U U53A U56A A66C A113C,≤ -4.2
17,U13A A30G A37C G68U,≤ -4.2
18,A12U A24C C63G C85U C87A G94C A107G G126A A137G G141U,≤ -4.2
19,A12G C85U C118G C125A,-0.473
20,U13A C14A A60G C93U,-2.5
21,A12U U55A C87U A119U U127C,-3.82
22,A12G A17G A19G U53A U55A G81U G84U G117U,-4.04
23,A12U U56A A115G,-2.11
24,A12G A41C A47C C72A C85U G133A A150U,≤ -4.2

row,Variant,polymerase ribozyme fitness (log ratio)
1,A12U A91U,≤ -4.2
2,A12U A91G,-2.26
3,A12G G92C G133U,-3.59
4,A12U C87U A97U,-0.917
5,U13A A20U A28C C93U G136C A137U,≤ -4.2
6,A12U C35A C79U C96A A110G C118U C125A,≤ -4.2
7,A12G C51G A52C C63G,≤ -4.2
8,A12U A97U,-0.954
9,A12G A17G C93U A120G,-0.897
10,A12C C93U,-2.17
11,A12U G42A C85U C99G,≤ -4.2
12,A12C G133C U145A,-1.11
13,A12U C87A C103G U135G,≤ -4.2
14,A12U C14U G50C A60G G74U C85U,≤ -4.2
15,A12U C87A A113U A115C U148A,≤ -4.2
16,U13A A52G U56A C75U U78A C87U C93A G136C C149A,≤ -4.2
17,A12G U56A A60U G65U A91U C96G A120U,≤ -4.2
18,A12U G59U C69A C96U,-2.45
19,U13A A73G G84A,-0.387
20,A12G A21U C27A G48C A49C C51A G84A C129A,≤ -4.2
21,A12G A24U C87U,0.648
22,A12G C57U C87U C103G,-2.19
23,U13A A19U A37C U45A A49C C51U C76U G94A G133U U134A G140U U148A,≤ -4.2
24,A12G A23C A47C A60G C93U,≤ -4.2

row,Variant,polymerase ribozyme fitness (log ratio)
1,A12U C18U A19G U56G A60U C76G C108U C114G,≤ -4.2
2,U13A A20G A28G G48A U146C,≤ -4.2
3,A12G C14G C18U U31A U56G U101A,-2.32
4,A12U A39U A150C,≤ -4.2
5,A12U A16U A17U C27U A47U G48A C76G G86U U145A G152U,≤ -4.2
6,A12G C38A C96G,-0.0836
7,A12U A16G A30U C79G C95A U144A,≤ -4.2
8,A12C C125U,-0.492
9,A12U C93U,-1.13
10,A12U C93A,-1.26
11,A12U G25U A37G A47C U77A C95G G141A,≤ -4.2
12,A12G A37G C87U U109G U144C U145C C149G,≤ -4.2
13,A12U C57G G65A,-3.18
14,A12G G59C,0.244
15,A12U A23C C54G U55G C79A G83U G92A G124C U145A,≤ -4.2
16,A12G U45A A52U U55A C79G G81A A98G,≤ -4.2
17,A12C U13G C18G A21G U101A A110U A120U G136C G140U G152U,≤ -4.2
18,A12U C85G C123U U127A,≤ -4.2
19,A12G C93A,-2.26
20,A12G C93U,-1.21
21,A12U C85U A97G C116U,-1.53
22,A12G A16G U44G G81C G84A C95U U144A U146C,≤ -4.2
23,A12G C35A C95U A106U,≤ -4.2
24,A12U G58A,-0.217

row,Variant,polymerase ribozyme fitness (log ratio)
1,A12G A20G A23U A89G C96U U111C G124C U130G G133C G140A,≤ -4.2
2,A12G C116G,0.204
3,A12U A16C C57G G81A U104G A115G,≤ -4.2
4,A12U U13A A52C C87A G94U U134A A138U,≤ -4.2
5,A12U C27U A73U C96G A97U A107G,≤ -4.2
6,A12G A24G C35A U44G G50C G71C G124A,≤ -4.2
7,A12G A30U U146G,-3.66
8,A12U A21U C38A A106U C116A A119G,-3.18
9,A12G A22G A39U A47U G92U A97G U101G,≤ -4.2
10,A12C C85U C116A A122G G143U,≤ -4.2
11,U13A C14G A19U U53A U55A G86C U135A,≤ -4.2
12,A12U C54U G59C A60G U144G,-0.245
13,A12C U44A U56G G83U A89U C95A A98C C103G A107G,≤ -4.2
14,A12G U56A C76A G143U,-3.46
15,A12G U55G,-2
16,A12G U55A,0.668
17,A12G G81A G92A C114A G152U,≤ -4.2
18,A12G C35U U56C C57G G58U A60G,-0.194
19,A12G U56A U144A,0.103
20,A12G C75U C93U U144C,-0.389
21,A12U C105G,-2.43
22,A12G A40U A60C G88U G117C,≤ -4.2
23,A12U G71A A107C,≤ -4.2
